# B1: modified nuclease L1 (other)
# chain: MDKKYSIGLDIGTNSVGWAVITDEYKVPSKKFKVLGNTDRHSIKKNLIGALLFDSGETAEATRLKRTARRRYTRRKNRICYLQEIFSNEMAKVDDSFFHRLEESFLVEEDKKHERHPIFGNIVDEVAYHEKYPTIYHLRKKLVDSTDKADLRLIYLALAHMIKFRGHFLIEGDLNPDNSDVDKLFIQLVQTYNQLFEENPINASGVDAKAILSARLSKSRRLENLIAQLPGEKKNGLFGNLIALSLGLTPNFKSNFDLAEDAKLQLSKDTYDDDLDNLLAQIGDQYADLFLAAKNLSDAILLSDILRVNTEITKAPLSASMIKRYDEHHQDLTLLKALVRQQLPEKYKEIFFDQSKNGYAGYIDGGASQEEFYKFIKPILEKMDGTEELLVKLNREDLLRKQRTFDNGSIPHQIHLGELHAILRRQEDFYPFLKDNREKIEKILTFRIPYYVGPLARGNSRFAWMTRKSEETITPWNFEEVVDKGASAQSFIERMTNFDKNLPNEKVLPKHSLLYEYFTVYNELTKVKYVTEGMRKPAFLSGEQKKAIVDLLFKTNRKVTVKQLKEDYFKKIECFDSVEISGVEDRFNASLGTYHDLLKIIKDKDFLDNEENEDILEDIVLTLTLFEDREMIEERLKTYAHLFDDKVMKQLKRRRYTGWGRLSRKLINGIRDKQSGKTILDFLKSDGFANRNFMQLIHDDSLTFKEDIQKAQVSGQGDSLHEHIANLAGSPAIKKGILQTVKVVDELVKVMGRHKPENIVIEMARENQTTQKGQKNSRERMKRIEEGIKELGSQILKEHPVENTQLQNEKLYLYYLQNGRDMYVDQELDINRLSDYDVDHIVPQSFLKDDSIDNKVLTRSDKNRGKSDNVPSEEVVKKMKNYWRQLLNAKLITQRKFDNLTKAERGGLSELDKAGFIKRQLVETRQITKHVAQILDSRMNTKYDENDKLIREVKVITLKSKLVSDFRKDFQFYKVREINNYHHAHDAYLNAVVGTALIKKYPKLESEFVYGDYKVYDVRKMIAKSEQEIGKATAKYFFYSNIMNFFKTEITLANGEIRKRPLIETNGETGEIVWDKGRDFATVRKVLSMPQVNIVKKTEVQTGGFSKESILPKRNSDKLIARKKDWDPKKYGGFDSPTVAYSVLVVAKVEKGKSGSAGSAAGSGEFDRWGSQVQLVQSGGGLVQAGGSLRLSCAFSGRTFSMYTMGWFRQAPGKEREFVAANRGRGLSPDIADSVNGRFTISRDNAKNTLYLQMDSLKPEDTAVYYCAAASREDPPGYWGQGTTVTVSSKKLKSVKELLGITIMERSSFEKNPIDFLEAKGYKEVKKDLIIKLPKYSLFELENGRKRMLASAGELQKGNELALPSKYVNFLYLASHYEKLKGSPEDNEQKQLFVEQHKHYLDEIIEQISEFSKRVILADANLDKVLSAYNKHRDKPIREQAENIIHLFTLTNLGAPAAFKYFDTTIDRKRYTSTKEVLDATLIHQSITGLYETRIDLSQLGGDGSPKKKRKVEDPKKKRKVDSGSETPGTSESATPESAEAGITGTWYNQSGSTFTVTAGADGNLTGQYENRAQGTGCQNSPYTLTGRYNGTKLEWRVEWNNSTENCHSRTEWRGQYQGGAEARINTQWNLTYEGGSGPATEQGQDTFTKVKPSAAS
# B2: modified nuclease L2 (other)
# chain: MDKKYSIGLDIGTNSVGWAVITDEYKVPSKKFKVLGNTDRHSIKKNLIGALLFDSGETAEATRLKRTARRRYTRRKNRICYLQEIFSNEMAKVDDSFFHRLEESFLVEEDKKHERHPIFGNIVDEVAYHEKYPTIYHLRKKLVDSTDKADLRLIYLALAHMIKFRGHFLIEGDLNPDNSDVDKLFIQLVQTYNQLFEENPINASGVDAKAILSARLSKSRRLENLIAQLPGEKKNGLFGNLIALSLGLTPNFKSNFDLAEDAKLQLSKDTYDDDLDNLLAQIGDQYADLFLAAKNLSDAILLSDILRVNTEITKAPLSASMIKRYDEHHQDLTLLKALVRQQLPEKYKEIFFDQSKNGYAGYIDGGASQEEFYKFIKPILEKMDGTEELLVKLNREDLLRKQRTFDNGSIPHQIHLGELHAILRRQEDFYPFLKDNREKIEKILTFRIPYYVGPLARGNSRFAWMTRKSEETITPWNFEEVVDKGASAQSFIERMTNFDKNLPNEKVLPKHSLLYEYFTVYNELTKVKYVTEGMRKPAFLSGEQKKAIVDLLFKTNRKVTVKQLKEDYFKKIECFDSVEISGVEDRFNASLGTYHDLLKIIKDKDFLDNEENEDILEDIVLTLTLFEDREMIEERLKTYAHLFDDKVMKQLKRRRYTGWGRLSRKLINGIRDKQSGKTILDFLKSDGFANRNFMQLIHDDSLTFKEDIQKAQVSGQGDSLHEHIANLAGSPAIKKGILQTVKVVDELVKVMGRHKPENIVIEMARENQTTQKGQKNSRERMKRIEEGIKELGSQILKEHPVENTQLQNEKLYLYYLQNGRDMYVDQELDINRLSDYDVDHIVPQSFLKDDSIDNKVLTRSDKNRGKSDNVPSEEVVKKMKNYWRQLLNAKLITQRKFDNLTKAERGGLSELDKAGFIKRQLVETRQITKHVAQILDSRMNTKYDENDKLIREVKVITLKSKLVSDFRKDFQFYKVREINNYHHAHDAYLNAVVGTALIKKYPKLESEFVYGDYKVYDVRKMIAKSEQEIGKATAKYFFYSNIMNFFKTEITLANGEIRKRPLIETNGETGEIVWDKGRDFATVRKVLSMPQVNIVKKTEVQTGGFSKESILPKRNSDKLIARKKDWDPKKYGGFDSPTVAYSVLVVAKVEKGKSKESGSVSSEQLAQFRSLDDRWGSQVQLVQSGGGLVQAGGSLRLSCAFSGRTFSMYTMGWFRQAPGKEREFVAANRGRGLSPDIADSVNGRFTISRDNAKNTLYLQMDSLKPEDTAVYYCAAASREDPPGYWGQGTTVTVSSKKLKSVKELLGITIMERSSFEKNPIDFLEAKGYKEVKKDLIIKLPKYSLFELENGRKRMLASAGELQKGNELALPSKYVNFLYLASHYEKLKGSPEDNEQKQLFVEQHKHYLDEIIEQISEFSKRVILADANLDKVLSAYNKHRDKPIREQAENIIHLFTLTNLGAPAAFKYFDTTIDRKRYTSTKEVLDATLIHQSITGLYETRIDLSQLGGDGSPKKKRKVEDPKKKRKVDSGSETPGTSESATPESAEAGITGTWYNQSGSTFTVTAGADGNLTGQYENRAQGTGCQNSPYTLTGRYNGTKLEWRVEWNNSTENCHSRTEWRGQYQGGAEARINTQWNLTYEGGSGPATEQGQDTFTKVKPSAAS
# B3: modified nuclease Zero (other)
# chain: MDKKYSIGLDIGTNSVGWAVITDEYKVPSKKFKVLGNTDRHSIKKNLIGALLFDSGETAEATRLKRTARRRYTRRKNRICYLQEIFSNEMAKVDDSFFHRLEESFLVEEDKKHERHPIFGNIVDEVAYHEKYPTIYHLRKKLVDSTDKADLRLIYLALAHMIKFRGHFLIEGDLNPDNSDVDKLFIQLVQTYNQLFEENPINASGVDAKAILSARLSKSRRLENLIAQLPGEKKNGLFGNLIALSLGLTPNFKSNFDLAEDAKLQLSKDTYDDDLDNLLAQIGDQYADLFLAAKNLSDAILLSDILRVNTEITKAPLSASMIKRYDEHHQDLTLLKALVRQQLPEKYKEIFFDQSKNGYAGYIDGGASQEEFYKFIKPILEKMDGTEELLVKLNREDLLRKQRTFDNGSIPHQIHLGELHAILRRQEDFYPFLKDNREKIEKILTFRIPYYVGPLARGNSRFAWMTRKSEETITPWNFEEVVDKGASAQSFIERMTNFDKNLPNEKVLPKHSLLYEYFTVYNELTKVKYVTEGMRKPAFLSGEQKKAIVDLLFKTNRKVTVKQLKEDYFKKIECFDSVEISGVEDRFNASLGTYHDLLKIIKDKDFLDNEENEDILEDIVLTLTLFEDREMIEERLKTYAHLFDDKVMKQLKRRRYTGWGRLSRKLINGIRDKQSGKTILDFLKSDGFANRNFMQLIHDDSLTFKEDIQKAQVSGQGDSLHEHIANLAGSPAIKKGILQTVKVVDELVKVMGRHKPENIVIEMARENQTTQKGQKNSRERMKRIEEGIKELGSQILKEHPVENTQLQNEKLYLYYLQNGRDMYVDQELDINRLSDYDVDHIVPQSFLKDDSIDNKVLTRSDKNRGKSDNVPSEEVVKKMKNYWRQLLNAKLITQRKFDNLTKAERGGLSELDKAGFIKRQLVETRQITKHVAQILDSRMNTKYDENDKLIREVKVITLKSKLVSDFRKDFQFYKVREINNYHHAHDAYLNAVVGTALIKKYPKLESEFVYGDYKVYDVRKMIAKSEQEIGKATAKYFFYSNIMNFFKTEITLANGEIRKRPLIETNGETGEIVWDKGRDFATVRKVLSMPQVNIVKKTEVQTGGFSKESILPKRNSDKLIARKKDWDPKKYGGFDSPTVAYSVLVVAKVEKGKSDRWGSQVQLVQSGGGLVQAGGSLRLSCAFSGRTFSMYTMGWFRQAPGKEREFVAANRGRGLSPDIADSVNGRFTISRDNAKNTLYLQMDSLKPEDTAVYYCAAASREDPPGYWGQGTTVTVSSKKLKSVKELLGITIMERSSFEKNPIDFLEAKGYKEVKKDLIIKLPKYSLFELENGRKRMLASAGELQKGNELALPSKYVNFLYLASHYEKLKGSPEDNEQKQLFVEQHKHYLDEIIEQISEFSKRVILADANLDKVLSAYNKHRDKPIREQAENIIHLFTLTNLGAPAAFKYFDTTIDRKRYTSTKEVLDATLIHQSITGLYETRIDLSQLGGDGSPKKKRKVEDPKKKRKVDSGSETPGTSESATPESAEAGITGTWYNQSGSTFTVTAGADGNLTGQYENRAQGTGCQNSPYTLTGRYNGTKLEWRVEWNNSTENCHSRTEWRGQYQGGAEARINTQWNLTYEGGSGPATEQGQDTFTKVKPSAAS
# Target: T1, CD4 on CD4+ T cells (Jurkat CD4+ T cells; human primary CD4+ T cells) (human, UniProt P01730 26-458)
# T1 construct: whole, on cells; also called CD4 receptor
# Experiment: flow cytometry, TAMRA-labelled nuclease, 1 h on Jurkat CD4+ T cells
row,Binder,delivery (percent of cells TAMRA-positive) [%]
1,B1,> 99
2,B2,> 99
3,B3,> 99

# — patent US20260071199A1 (JENTHERA THERAPEUTICS, published 2026)
